Measured values from patent US20250320258.

Tested on: NSP1 (SARS-CoV-2)

Substance: 18S rRNA
- binding signal (fold enrichment): > 5
